In patent US12065471B2, “B*44 restricted peptides for use in immunotherapy against cancers and related methods” (Immatics Biotechnologies GmbH, priority 2018, dated 2024):

biological target: HLA-B*44:05 (Homo sapiens, UniProt P01889, A223V/A65T/A93T/A95T/D201E/D98Y/E176V/E187L/E204Q/E69K/G107R/H137Y/K202T/L105A/L119I/N104T/N87E/Q56L/Q94N/R106L/R155S/R180D/S101N/S121R/S35A/S48T/T118I/V36M/W191S/Y91S); assay: MHC binding assay (UV-ligand exchange, β2m ELISA, peptide exchange yield); conditions: binding to HLA-B*44:05
Text: Candidate peptides for T cell-based therapies according to the present invention were further tested for their MHC binding capacity (affinity). The individual peptide-MHC complexes were produced by UV-ligand exchange, where a UV-sensitive peptide is cleaved upon UV-irradiation and exchanged with the peptide of interest as analyzed. Only peptide candidates that can effectively bind and stabilize the peptide-receptive MHC molecules prevent dissociation of the MHC complexes. To determine the yield of the exchange reaction, an ELISA was performed based on the detection of the light chain (β2m) of stabilized MHC complexes. The assay was performed as generally described in Rodenko et al. (Rodenko et al., 2006)
96 well MAXISorp plates (NUNC) were coated over night with 2 μg/ml streptavidin in PBS at room temperature, washed 4× and blocked for 1 h at 37° C. in 2% BSA containing blocking buffer. Refolded HLA-A*02:01/MLA-001 monomers served as standards, covering the range of 15-500 ng/ml. Peptide-MHC monomers of the UV-exchange reaction were diluted 100-fold in blocking buffer. Samples were incubated for 1h at 37° C., washed four times, incubated with 2 μg/ml HRP conjugated anti-β2m for 1h at 37° C., washed again and detected with TMB solution that is stopped with […]. Absorption was measured at 450 nm.

Substance	Peptide exchange (MHC class I binding score, peptide exchange yield)
315 (MEQQSQEY; listed as Homo sapiens) [compound 315]	+++ (>50 = +++)
219 (WEVEVGDRTDW; listed as Homo sapiens) [compound 219]	+++ (>50 = +++)
52 (EDNPSGHTY; listed as Homo sapiens) [compound 52]	++ (>20% = ++)
67 (TEGAVEVKY; listed as Homo sapiens) [compound 67]	++ (>20% = ++)
108 (QETNKVETY; listed as Homo sapiens) [compound 108]	+++ (>50 = +++)
357 (AELMDKPLTF; listed as Homo sapiens) [compound 357]	+++ (>50 = +++)
179 (EEHIFSAF; listed as Homo sapiens) [compound 179]	++ (>20% = ++)
126 (SEASQSPQY; listed as Homo sapiens) [compound 126]	+++ (>50 = +++)
106 (SVISDSPRSW; listed as Homo sapiens) [compound 106]	+++ (>50 = +++)
354 (TEIMEKTTL; listed as Homo sapiens) [compound 354]	+++ (>50 = +++)
134 (IEIKDRLQL; listed as Homo sapiens) [compound 134]	+++ (>50 = +++)
122 (GESVSWHLF; listed as Homo sapiens) [compound 122]	+++ (>50 = +++)
153 (IEIILLSGSL; listed as Homo sapiens) [compound 153]	++++ (>75% = ++++)
206 (SEDPEKYYL; listed as Homo sapiens) [compound 206]	+++ (>50 = +++)
10 (SEYPTKNYV; listed as Homo sapiens) [compound 10]	++ (>20% = ++)
456 (SESPIRISV; listed as Homo sapiens) [compound 456]	+++ (>50 = +++)
405 (YEHAFNSIVW; listed as Homo sapiens) [compound 405]	++++ (>75% = ++++)
304 (RELGFTEATGW; listed as Homo sapiens) [compound 304]	++++ (>75% = ++++)
355 (SETSTGTSV; listed as Homo sapiens) [compound 355]	++ (>20% = ++)
155 (TEDARHPESW; listed as Homo sapiens) [compound 155]	++++ (>75% = ++++)
216 (AGSPVMRKW; listed as Homo sapiens) [compound 216]	++ (>20% = ++)

Substance	Peptide exchange (MHC class I binding score, peptide exchange yield)
352 (QEDELVKIRKY; listed as Homo sapiens) [compound 352]	+++ (>50 = +++)
412 (EESFDSKFY; listed as Homo sapiens) [compound 412]	+++ (>50 = +++)
403 (QESVHVASY; listed as Homo sapiens) [compound 403]	++++ (>75% = ++++)
21 (SEAKEIKSQL; listed as Homo sapiens) [compound 21]	+++ (>50 = +++)
191 (AEHDMKSVL; listed as Homo sapiens) [compound 191]	+++ (>50 = +++)
309 (SDDLRNVTW; listed as Homo sapiens) [compound 309]	++++ (>75% = ++++)
132 (AESFTSGRHYW; listed as Homo sapiens) [compound 132]	++++ (>75% = ++++)
101 (SEENTGKTY; listed as Homo sapiens) [compound 101]	+++ (>50 = +++)
172 (RENPGMFSW; listed as Homo sapiens) [compound 172]	+++ (>50 = +++)
321 (AENPLNIFYI; listed as Homo sapiens) [compound 321]	+++ (>50 = +++)
217 (EVEVGDRTDW; listed as Homo sapiens) [compound 217]	++ (>20% = ++)
294 (EEWEWIQKL; listed as Homo sapiens) [compound 294]	++++ (>75% = ++++)
95 (AAFEDAQGHIW; listed as Homo sapiens) [compound 95]	++++ (>75% = ++++)
390 (GEYNKHAQLW; listed as Homo sapiens) [compound 390]	++++ (>75% = ++++)
110 (EVEVGEVKSW; listed as Homo sapiens) [compound 110]	+ (>10% = +)
116 (AEANPRDLGASW; listed as Homo sapiens) [compound 116]	+++ (>50 = +++)
343 (SEFDLEQVW; listed as Homo sapiens) [compound 343]	++++ (>75% = ++++)
290 (AECILSKRL; listed as Homo sapiens) [compound 290]	+++ (>50 = +++)
411 (AERDLNVTI; listed as Homo sapiens) [compound 411]	+++ (>50 = +++)
143 (HEIIIRSHW; listed as Homo sapiens) [compound 143]	+++ (>50 = +++)
195 (MEIKGTVTEF; listed as Homo sapiens) [compound 195]	+++ (>50 = +++)

Substance	Peptide exchange (MHC class I binding score, peptide exchange yield)
58 (KEMDPSRQSY; listed as Homo sapiens) [compound 58]	+++ (>50 = +++)
291 (DEQLLLRF; listed as Homo sapiens) [compound 291]	++ (>20% = ++)
113 (MEFKTLNKN; listed as Homo sapiens) [compound 113]	++ (>20% = ++)
182 (EELHAALSEW; listed as Homo sapiens) [compound 182]	++++ (>75% = ++++)
300 (KQTEATMTF; listed as Homo sapiens) [compound 300]	++ (>20% = ++)
409 (QEAKPRATW; listed as Homo sapiens) [compound 409]	+++ (>50 = +++)
77 (QETLAESTW; listed as Homo sapiens) [compound 77]	+++ (>50 = +++)
252 (EEFIGKIGI; listed as Homo sapiens) [compound 252]	++ (>20% = ++)
180 (EEHSSKLQTSL; listed as Homo sapiens) [compound 180]	++++ (>75% = ++++)
247 (KESMLKTTL; listed as Homo sapiens) [compound 247]	+++ (>50 = +++)
340 (GELAPSHGL; listed as Homo sapiens) [compound 340]	+++ (>50 = +++)
322 (REESDWHYL; listed as Homo sapiens) [compound 322]	+++ (>50 = +++)
376 (SESDGIEQL; listed as Homo sapiens) [compound 376]	+++ (>50 = +++)
231 (AEALVDGKWQEF; listed as Homo sapiens) [compound 231]	+++ (>50 = +++)
240 (MELQVSSGF; listed as Homo sapiens) [compound 240]	+++ (>50 = +++)
379 (AENRVGKMEA; listed as Homo sapiens) [compound 379]	++ (>20% = ++)
194 (TEGDVLNYIF; listed as Homo sapiens) [compound 194]	+++ (>50 = +++)
402 (IETSSEYFNF; listed as Homo sapiens) [compound 402]	+++ (>50 = +++)
123 (DEINHQSL; listed as Homo sapiens) [compound 123]	++ (>20% = ++)
200 (KELSVFKKF; listed as Homo sapiens) [compound 200]	+++ (>50 = +++)
297 (DEYLIPQQGFF; listed as Homo sapiens) [compound 297]	++ (>20% = ++)
